Reference: PMC4275181, “Evolution of RNA-Protein Interactions: Non-Specific Binding Led to RNA Splicing Activity of Fungal Mitochondrial Tyrosyl-tRNA Synthetases”

What was measured:
[1] = biological target: T1, Sc CTD (Saccharomyces cerevisiae, UniProt P48527 414-492); assay: filter binding; 25C; n=1.6; 100 mM KCl, 5 mM MgCl2, 20 mM Tris-HCl pH 7.5, 5 mM DTT, 0.1 mg/ml BSA, 10% glycerol, 5 pM RNA, 30 min, 25C or 37C; nitrocellulose/nylon filter; conditions: protein: recombinant; label: 5'-32P
T1 sequence: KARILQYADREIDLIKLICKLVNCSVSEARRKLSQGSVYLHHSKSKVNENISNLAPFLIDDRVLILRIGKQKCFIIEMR

[2] = biological target: T2, CYT-18 NTDs (Neurospora crassa, UniProt P12063 33-417); assay: filter binding; 25C; 100 mM KCl, 5 mM MgCl2, 20 mM Tris-HCl pH 7.5, 5 mM DTT, 0.1 mg/ml BSA, 10% glycerol, 5 pM RNA, 30 min, 25C or 37C; nitrocellulose/nylon filter; conditions: protein: recombinant; tags: N-terminal 6xHis, TEV-cleaved; extra N-terminal Gly; chain copies: 2; label: 5'-32P
T2 sequence: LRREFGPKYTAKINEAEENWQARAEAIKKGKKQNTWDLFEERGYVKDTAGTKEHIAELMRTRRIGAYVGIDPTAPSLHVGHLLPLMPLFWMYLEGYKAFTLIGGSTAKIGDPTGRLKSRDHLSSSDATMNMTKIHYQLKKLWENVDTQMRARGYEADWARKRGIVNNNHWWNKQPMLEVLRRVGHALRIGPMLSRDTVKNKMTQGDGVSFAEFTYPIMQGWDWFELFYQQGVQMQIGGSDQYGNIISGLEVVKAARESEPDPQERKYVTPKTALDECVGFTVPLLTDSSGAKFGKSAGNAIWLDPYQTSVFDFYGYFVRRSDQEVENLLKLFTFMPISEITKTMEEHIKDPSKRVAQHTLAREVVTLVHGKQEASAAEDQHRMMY

Binder: UUUUUUUUUUUUUUUUUUUUUUUUUUUUUU (ssRNA) [poly(U)30]
- apparent K (half saturation) [1]: 1000 nM
- binding result [2]: no binding
